Where only a bound is given, the exact number is not on record here.

For this assay, the target named is human EGFR-WT (human) (UniProt P00533).

Substance “human recombinant Epiregulin (from UniProt O14944 63-108) (ligand)” registered a potency of hEpiregulin against hEGF for recruitment of the seven SH2 biosensors to the plasma membrane (ebBRET, Fig. 2a), HEK293 cells with EGFR-WT, 10 min (fold less potent than hEGF) above 100.

The values are drawn from PMC10907714.
